The term Kd denotes the concentration at which binding is half-saturated. A high value points to lower affinity.

Residue numbers refer to the chain shown, from its start. Names may count otherwise. No end group written: not given here.

Drawing on article PMC10241913 (Nature Communications, 2023), this text covers binding result and Kd for 7 molecules.

What all share (conditions): both partners purified
The target of experiment [1] is T1, UBXD1-PUB (150-264) (human, UniProt Q9BZV1 150-264).
T1 construct: UBXD1 (UBXN6), human, PUB domain, residues 150-264; also called His6-UBXD1-PUB; source: E. coli Rosetta2, purified (Ni-NTA, thrombin cleavage, SEC); unlabelled or 15N-labelled; not shown: His6, N-terminal, cleaved
T1 sequence (looked up): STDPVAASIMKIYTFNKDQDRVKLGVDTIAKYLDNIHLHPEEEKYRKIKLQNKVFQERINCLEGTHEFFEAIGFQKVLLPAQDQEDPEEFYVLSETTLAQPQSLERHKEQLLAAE
The experiment is described as follows: NMR titration; 1H-15N-HSQC of 15N-HR23b-UBL (200 µM), UBXD1-PUB added stepwise to 400 µM; 50 mM sodium potassium phosphate, pH 7.5, 25 °C.

In experiment [2] the target is T2, UBXD1 (1–441), recombinant, purified (human, UniProt Q9BZV1 1-441).
T2 construct: also called UBXD1-wt; UBXD1-fl; not shown: GST, N-terminal, cleaved
T2 sequence (looked up): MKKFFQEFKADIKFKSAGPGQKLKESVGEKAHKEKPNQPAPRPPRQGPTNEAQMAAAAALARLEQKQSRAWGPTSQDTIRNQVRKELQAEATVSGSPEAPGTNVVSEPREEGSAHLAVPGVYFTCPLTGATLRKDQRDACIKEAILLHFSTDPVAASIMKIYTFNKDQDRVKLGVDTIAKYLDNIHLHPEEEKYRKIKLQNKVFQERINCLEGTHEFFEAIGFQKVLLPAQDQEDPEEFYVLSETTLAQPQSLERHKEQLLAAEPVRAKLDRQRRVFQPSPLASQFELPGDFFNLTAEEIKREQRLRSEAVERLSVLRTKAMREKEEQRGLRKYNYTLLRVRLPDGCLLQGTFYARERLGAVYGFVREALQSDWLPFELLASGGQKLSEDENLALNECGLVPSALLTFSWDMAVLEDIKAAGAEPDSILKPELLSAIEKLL
Kind of experiment: fluorescence polarisation; direct anisotropy titration of 5,6-FAM-p97-C10 peptide (0.1 µM in the displacement set-up) with UBXD1.

In experiment [3] the target is T3, UBXD1-wt (1-441) (human, UniProt Q9BZV1 1-441).
T3 construct: also called UBXD1-fl; UBXN6; not shown: GST, N-terminal, cleaved
T3 sequence (looked up): T2 sequence (looked up)
Kind of experiment: fluorescence polarisation; displacement titration: UBXD1 incubated with 0.1 µM 5,6-FAM-p97-C10 peptide to 50% saturation, concentration of p97 successively increased; competitive binding model; 50 mM NaKPi buffer, pH 7.5, 25 °C.

Experiment [4] has as its target T4, p97-N (1–199) (UniProt P55072 1-199).
T4 construct: p97/VCP, N-domain, residues 1-199; also called N-domain of p97; source: E. coli BL21 DE3 (T1r) (pET28a), purified
Kind of experiment: fluorescence polarisation; fluorescence anisotropy; Atto594-labeled UBXD1 proteins, p97 constructs titrated; 50 mM NaKPi pH 7.5, 25 °C; all fitted with stoichiometry n = 1. Background: Polarisation of emitted light reports the rotation of a fluorescent probe.

The target in experiment [5] is T5, ubiquitin-GST fusion protein (Ub-GST) (UniProt P0CG48 1-76).
T5 construct: source: E. coli BL21 DE3 (T1r), purified
Kind of experiment: pull-down; 50 μM ubiquitin-GST, 2.5 μM p97 (hexamer) and 5 μM UBXD1 variant with GSH beads, 30 min, 4 °C, 50 mM Tris pH 7.4, 150 mM KCl, 1% Triton-X-100.

The target in experiment [6] is T6, UBXD1-PUB (150–264) (human, UniProt Q9BZV1 150-264).
T6 construct: UBXD1 (UBXN6), human, PUB domain, residues 150-264; 15N-labelled for some NMR titrations; also called isolated PUB domain; His-UBXD1-PUB; source: E. coli Rosetta2, purified (Ni-NTA, thrombin cleavage, SEC); not shown: His6, N-terminal, cleaved
T6 sequence (looked up): T1 sequence (looked up)
Kind of experiment: NMR titration; 1H-15N-HSQC: 15N-UBXD1-PUB (400 µM) with HR23b-UBL (0 to 1300 µM), and the reverse titration of 15N-HR23b-UBL with UBXD1-PUB; 25 °C.

The target of experiment [7] is T7, p97 wild type (1-806) (UniProt P55072 1-806).
T7 construct: p97/VCP, residues 1-806; also called p97-wt; p97-fl; source: E. coli BL21 DE3 (T1r), purified (Ni-NTA, anion exchange)
Kind of experiment: fluorescence polarisation; fluorescence anisotropy titration of Atto594-labelled UBXD1 construct with p97 construct; 50 mM NaKPi buffer, pH 7.5, 25 °C; fitted with the stoichiometry 1:1.

T7 sequence (P55072 whole entry, the tested form may be a part): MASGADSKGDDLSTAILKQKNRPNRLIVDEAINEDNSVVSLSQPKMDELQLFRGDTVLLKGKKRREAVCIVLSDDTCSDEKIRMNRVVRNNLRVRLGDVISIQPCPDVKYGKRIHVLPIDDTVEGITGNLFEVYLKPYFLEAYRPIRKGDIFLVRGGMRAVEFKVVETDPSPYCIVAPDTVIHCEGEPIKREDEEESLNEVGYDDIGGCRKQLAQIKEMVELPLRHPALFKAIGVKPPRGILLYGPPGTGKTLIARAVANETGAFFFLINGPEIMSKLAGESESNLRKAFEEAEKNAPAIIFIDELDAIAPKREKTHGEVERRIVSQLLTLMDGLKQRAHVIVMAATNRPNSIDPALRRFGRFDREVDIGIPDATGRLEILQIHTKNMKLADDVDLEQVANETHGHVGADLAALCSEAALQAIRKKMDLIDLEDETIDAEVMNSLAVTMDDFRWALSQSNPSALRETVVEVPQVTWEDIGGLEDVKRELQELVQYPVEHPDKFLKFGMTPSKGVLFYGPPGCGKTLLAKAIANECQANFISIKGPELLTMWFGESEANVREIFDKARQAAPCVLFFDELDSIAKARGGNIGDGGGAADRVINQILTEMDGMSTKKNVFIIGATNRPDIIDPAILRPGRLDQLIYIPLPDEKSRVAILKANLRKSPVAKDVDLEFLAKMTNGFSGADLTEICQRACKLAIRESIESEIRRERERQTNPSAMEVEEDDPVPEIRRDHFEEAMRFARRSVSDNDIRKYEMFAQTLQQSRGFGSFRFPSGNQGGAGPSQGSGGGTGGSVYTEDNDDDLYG
T4 sequence (P55072 1-199): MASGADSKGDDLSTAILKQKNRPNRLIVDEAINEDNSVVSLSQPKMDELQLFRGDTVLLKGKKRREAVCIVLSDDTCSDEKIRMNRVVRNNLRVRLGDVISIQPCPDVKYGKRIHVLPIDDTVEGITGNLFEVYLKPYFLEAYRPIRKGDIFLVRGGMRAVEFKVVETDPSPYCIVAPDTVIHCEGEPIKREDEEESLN

B1: HR23b-UBL (1-78) (domain or fragment)
chain: not shown
notes: also called HR23b-UBL wt; 15N-HR23b-UBL; source: unlabelled or 15N-labelled; not shown: GST, N-terminal, cleaved
For B1, in experiment [1], the binding result is “binds”. Consider {5,6‑FAM}-TEDNDDDLYG (p97/VCP, C-terminal residues 797-806), for which the binding result in experiment [2] was “binds”.

Turning to {5,6‑FAM}-TEDNDDDLYG (p97/VCP C-terminal residues 797-806), in experiment [3], the binding result is recorded as “binds”.

B2: UBXD1-N (1–133) (domain or fragment, human, UniProt Q9BZV1 1-133, looked up)
chain: MKKFFQEFKADIKFKSAGPGQKLKESVGEKAHKEKPNQPAPRPPRQGPTNEAQMAAAAALARLEQKQSRAWGPTSQDTIRNQVRKELQAEATVSGSPEAPGTNVVSEPREEGSAHLAVPGVYFTCPLTGATLR
modifications: Atto594 (NHS ester; the UBXD1 proteins were labeled for anisotropy)
notes: UBXD1 (UBXN6), human, N-terminus, residues 1-133; The construct is not described on its own in the methods; limits from the results; also called UBXD1 N-terminus; not shown: GST, N-terminal, cleaved
B2 displayed a Kd in experiment [4] of 22 ± 1 µM.

B3: UBXD1 E368A/D373A (full length, recombinant) (natural protein, human, UniProt Q9BZV1 1-441, looked up)
chain: T2 sequence (looked up) with E368A, D373A
notes: UBXD1 (UBXN6), human, mutant in the context of recombinant UBXD1-fl
As to B3, the binding result in experiment [5] is “binds”.

B4: HR23b-UBL (domain or fragment)
chain: not shown
notes: HR23b (RAD23B), UBL domain; The cited NMR structure of the HR23b-UBL domain is PDB 1P1A; 15N-labelled for the reverse titration; also called HR23b-UBL wt; UBL domain of HR23b; not shown: GST, N-terminal, cleaved
B4 displayed a dissociation constant Kd in experiment [6] of 1500 ± 900 µM.

B5: UBXD1-ΔUBX-C (1-332), Atto594-labelled (domain or fragment, human, UniProt Q9BZV1 1-332, looked up)
chain: MKKFFQEFKADIKFKSAGPGQKLKESVGEKAHKEKPNQPAPRPPRQGPTNEAQMAAAAALARLEQKQSRAWGPTSQDTIRNQVRKELQAEATVSGSPEAPGTNVVSEPREEGSAHLAVPGVYFTCPLTGATLRKDQRDACIKEAILLHFSTDPVAASIMKIYTFNKDQDRVKLGVDTIAKYLDNIHLHPEEEKYRKIKLQNKVFQERINCLEGTHEFFEAIGFQKVLLPAQDQEDPEEFYVLSETTLAQPQSLERHKEQLLAAEPVRAKLDRQRRVFQPSPLASQFELPGDFFNLTAEEIKREQRLRSEAVERLSVLRTKAMREKEEQRGLR
modifications: Atto594 (NHS ester labelling)
notes: the methods say that the UBXD1 proteins were labelled with Atto594-NHS ester for anisotropy; not shown: GST, N-terminal, cleaved
In experiment [7], B5 showed a Kd of 5.5 ± 0.2 µM.
